Results from the DeepSol protein solubility set.

Assay: soluble on expression in E. coli; label from the status in PepcDB or PDB records

Sequence | soluble on expression in E. coli
MSDELSVKRHKSDPDESIEEIMPEIRPPLTRTHKIVRDESGKHNLLLILTGSIAVMKAPELISELYEKIGRDRILIKVVTTENAMKLCHIQKLEFDEIVYEDRDEWSMWRERGDKVLHIELRKWADSALIAPLDANTMAKIANGLCDNLVTSIIRAWDLSKPCYFAPAMNTHMWENPLTMQHRTVLKSQLKFKEICPIQKELICGDVGTGAMASIGTIVSLVAALVRDQQAVRIQCG | not soluble
MTDWLYRYPKLYPGFLLKRYKRFFADVQLTSGEVVTAHCPNTGPMTGVSKIGSPVQLSQSDNPNRKLAYTLELIQVQEQEPTWVGVNTALPNRVIKLALEKFLFPELRDYTQVKGEVIYGKDKKSRVDFYLTGSEKQSPIYLEVKNTTWTQGNLALFPDTETTRGQKHLRELMEVLPHSRAVMLYFINRGDCPEFAPGDSTDPVYGKLLRQAITVGLEVLPCRFDVSPEGIRYLGLAKLKT | not soluble
MGSDKIHHHHHHGNLGKYSIYYAQNLPHETGTNSVMTAVFKHLGDVYIPYNSLDNDGNKMLETEDKTIHYQAGGMFSPTMITVKSTKDGDVLLSLQSDSQFPYCIYDFTENTYYGFNRAGTLVAEFIDSNTNVLSSHRVSALNTVNKLQNEMYGPIISHRKVPKINLQFIYNFVNEGKFK | not soluble
MNNFLKHNDWARDPAFNHFWRHYDFSNQWIKQHTDASRQVQMQMVQRDNLSTEQCFSDSEEPEVIERLSRCEIYSEIENEESDIEEMSEEMKAFFAKTQEHRQKFSIRGRIEQSTDHRNASAEFIAKREKAKKDYGESATKILAMESTLAMKFESEYSQNPQLWPNIPFRF | not soluble
MAHHHHHHMSVPLRRTVLHSLHLSRKARMGPFAGYDMPIHYQPGVVQEHLHTRQAAGLFDVSHVGFFEVWGADRHKFFEWVTPSGVTELQDGQSALTLFMNESGGVKDDCIVSKYSDHLLAVINAGCKGKIITHLKDRLAEFKGDATLVELDRAMVSLQGPKAASVMAPFVEELDRVKFMWGRRSVCVKGIDITLTRCSYSGEDGFDIIVPIQDAVQFVELLLQNPDVQLAGLGARDSLRTEAGLCLYSHELSEEVNPVAARLMWCIPKRRMAEGGFIGHERLQTFVQRAKELVPRLRMGILSVARGPVARTGMPILVGDVVVGEVTSGVPSPTLSRNIAIGYIDRAKARAGETVELEVRGKRLPGEVTLPRFVPQRYYKG | not soluble
MLKGKTIYVRPLEVTDAEENLGLQSENRDFFEQFSMIRADDYYTVEGQRKRITEYQERLEKDEEYHFGIFTASDDRLIGTVSLFQIIRGALQTAFIGYFLDKAHNGKGIMTEAVRLVVDYAFHELKLHRIEAGVMPRNLGSMRVLEKAGFHKEGIARKNVKINGVWEDHQVLAILNPDDEQLEHHHHHH | not soluble
MQRYNSTYVVKRDGRKEDVHFDKITSRIQKLSYGLNMDFVDPVAVAIKVISGLYKGVTTVELDNLAAETAASMTTQHPEYALLAARIAVSNLHKKTNKVFSEVMKTLHEFHHPHTGKHAPMISDETWAIIEKNADKLNSAIVYDRDYSYTYFGFKTLERSYLLKINKEIVERPQQMLMRVSIGIHGDDITSAIETYNLMSERYMTHASPTLFNSGTCRPQMSSCFLLTMSEDSILGIYDTLKQCALISKSAGGIGLNVHKIRATGSVIAGTNGTSNGLIPMLRVYNNTARYVDQGGNKRPGAFAIYLEPWHADIFEFVSLRKNTGPEEERARDLFLALWIPDLFMKRVEKDQEWSLMCPCECPGLDDCWGEEFEALYAKYEAEGRVRKTVKARKLWEHIVSNQIETGLPYITYKDAANRKSNQQNLGTIKCSNLCTEIIEYSAPDEIAVCNLASIALNRYVTPEKKFDFVKLAEVTKVITRNLNKIIDVNYYPVEEARNSNMRHRPIGLGVQGLADCFMLMRYPFTSAEARDLNKRIFETIYYAALEASCELAELNGPYSTYEGSPVSKGQLQFDMWGVTPTDQCDWATLRKKIAKHGIRNSLLMAPMPTASTAQILGNNESIEPYTSNIYSRRVLSGDFQIVNPHMLKDLVERGLWTDEMKNRLIANNGSIQNIDGIPSDIKELYRTVWEISQKDIIEMAADRGAYIDQSQSLNIHMAKPSYAGITSMHFYGWKKGLKTGMYYLRTKPAVNAVQFTVDKNALKTNQQAETPATVAESQDEGCLMCSG | not soluble
MAVSDSQNSQTCLDPDASRSVLGIILGGGAGTRLYPLTKKRAKPAVPLGANYRLIDIPVSNCLNSNISKIYVLTQFNSASLNRHLSRAYASNMGGYKNEGFVEVLAAQQSPENPDWFQGTADAVRQYLWLFEEHTVLEYLILAGDHLYRMDYEKFIQAHRETDADITVAALPMDEKRATAFGLMKIDEEGRIIEFAEKPQGEQLQAMKVDTTILGLDDKRAKEMPFIASMGIYVISKDVMLNLLRDKFPGANDFGSEVIPGATSLGMRVQAYLYDGYWEDIGTIEAFYNANLGITKKPVPDFSFYDRSAPIYTQPRYLPPSKMLDADVTDSVIGEGCVIKNCKIHHSVVGLRSCISEGAIIEDSLLMGADYYETDADRKLLAAKGSVPIGIGKNCHIKRAIIDKNARIGDNVKIINKDNVQEAARETDGYFIKSGIVTVIKDALIPSGIII | soluble
MKQSKIIVAGIGPGSEQDITPAVLAAVREADVVVGYKYYFRFIRDFVRPDAECIDTGMKRERARAEQAFEYAEQGKTVCVISSGDAGIYGMTPLIYEMKRERQSNVEIIALPGISAFQKAASLLGAPIGHDFCVISLSDLMTPWERIERRILAAAQADFVTAVYNPKSDGRYWQIYRLREIFLREGRSPETPVGYVRQAGREEQEIHITTLAAFDPETVDMFTVVLIGNSQTYTFNQNIITPRGYYRETRSEATGIGQDIMIRSFRTIETELKNRDIPLDRKWALLHAIHTTADFEMERLLYTDPNAVASLYDAIRTGNLRTIVTDVTMAASGIRKGALQRLGVEVKCYLNDERVAEMATSKGITRTQAGIRLAVEEHPDALFVFGNAPTALMELCDLIRKEKAQPAGIVAAPVGFVHVEESKHMTKPFTHIPKLIVEGRKGGSNLAATLVNAILCYPDAEQLRPGRDV | soluble
MDFVHCNKCFNRKPPDGFFISSCFHIFCTKCAKADLAVCLICKKNVRLVRLDGNISSGIKIYFADPIKMVADSLAKIQKKIDFQQSTRDHLVKYLTKEKEKKRQMEVYFRTKGQEFDSQRKKLAEATAWIQMAEKKLQASEEERVKAEREIEECQAKLKSMTNLMSADTLGMNSQTPFPFSLAESQETAPSLVESSANSTFNMVSPLVSSPASSPNSINYNSFFENGSRTRPESLNEEAMFNTMSSGQSANANTSESSAFSVAFNNIFTPSRNNMGDSSMINKTTANQTIMDKTSMSLENWRQNRANSFGVHDISKRDSSLPTGGGSAIRVHHFKQNSRITPIAQNRRSAAGFDRQQIQEMRRISSQPGYLAQRKPINGRSFIGPAD | not soluble
GMTKKTGFFKRLKALTLPQKQLFATALCQRMLPNYQLFSEVCEFGDPAVLSTALELLWQSLYDPKLKFNIDVHLQRLEDNTPEPADFEAYGVYPAMDAVVAISTLLGAIQGKIEEDIVNISKLSSSTVANYIEAISDVDLVDEALDDFVFAHEVMEEEKELQNSLLEIIEENPKITAELVKGLRKDIIETGVSNIGISVA | soluble
MGSRCVAAANCPFGKLPGQSCVRKSDPSLAFNIPSNQDNCPMGQVCITAGESQVGHCCPVICPLNTTTDTRYSCDPDAAPALKCPSDSHYCYFLSGNFNKIQNFICNANSDGSFSQAACCRRPCNAMAPNALYVDYHCMPRGQLNSACTSNAQCGGGEGMECMKGQCQCQQNFHPAVDVLTNPLKNPSQSCSRDCESENLSKDTSCMKAVPLNSLCFIQKQCPQNSGCYRGRCMCRCGFAAKNGKCVEIPAPPTTTSAPAPAIIPGVPINPGNDLFKLFGQFLGAGNGGGGLNFG | not soluble
GSHMTMSRRNTDAITIHSILDWIEDNLESPLSLEKVSERSGYSKWHLQRMFKKETGHSLGQYIRSRKMTEIAQKLKESNEPILYLAERYGFESQQTLTRTFKNYFDVPPHKYRMTNMQGESRFLHPLNHYNS | soluble
MGSDKIHHHHHHMIKIETVLDILKKDGLFREIIDQGHYHYNYSKVIFDSISYDSRKVTEDTLFFAKGAAFKKEYLLSAITQGLAWYVAEKDYEVGIPVIIVNDIKKAMSLIAMEFYGNPQEKLKLLAFTGTKGKTTAAYFAYNILSQGHRPAMLSTMNTTLDGETFFKSALTTPESIDLFDMMNQAVQNDRTHLIMEVSSQAYLVKRVYGLTFDVGVFLNISPDHIGPIEHPSFEDYFYHKRLLMEKSRAVIINSDMDHFSVLKEQVEDQDHDFYGSQFDNQIENSKAFSFSATGKLAGDYDIQLIGNFNQENAVAAGLACLRLGASLEDIKKGIAATRVPGRMEVLTQKNGAKVFIDYAHNGDSLKKLINVVETHQTGKIALVLGSTGNKGESRRKDFGLLLNQHPEIQVFLTADDPNYEDPMAIADEISSYINHPVEKIADRQEAIKAAMAITNHELDAVIIAGKGADCYQIIQGKKESYPGDTAVAENYL | not soluble
MKKPNHSGSGQIRIIGGQWRGRKLPVPDSPGLRPTTDRVRETLFNWLAPVIVDAQCLDCFAGSGALGLEALSRYAAGATLIEMDRVVSQQLIKNLATLKAGNARVVNSNAMSFLAQKGTPHNIVFVDPPFRRGLLEETINLLEDNGWLADEALIYVESEVENGLPTVPANWSLHREKVAGQVAYRLYQHEAQGESDAD | not soluble
MGSDKIHHHHHHMRDQAESLRRMVDGVMEQGRGQGKVIAVVSGKGGVGKSNVSLNFALTLSRQNQKVALIDLDLGMGNLDILMGLSPSYHIIDMIKRELTIWDIAEQGPEGITYIAGGSGLSELVELNERQMERFFQQLESLGAIYDYIILDMGAGATAESLRFILSAHEIFVVTTPEPTSITDAYAMVKYICKEPIENPEILLIVNRAESKREGEQTAANFKRVVSHFLKKDIHSLGYLPQDSHVVKAVKAQAPFVLHAPQAKASMAMGKLVHTYLGHRVDRGAPSYQSFMKKIRKWFR | not soluble
AIAEAEGMLPPQSLSAKFEGSFAYLTVRDRLPTILTKVVDTLHRNKDNFYKEYGEEGTEAEKRAISFLSRLRNELQTDKPVLALTDNAEDTQAWNEYMERQQDLMENGQLVSWFKSPWLYVECYMYRRIQEALYMNPPMHNFDPFKEGKTQSYFESQQAIKYLCTYLQELITNMENMTEIQLRENFLKLIQVSLWGNKCDLSISAGQDNSQKLSPIDSLPDLQRFILVDDSSMVWSTLVASQGSRSSGMKHARVDIILDNAGFELVTDLVLADFLISSGLAKQIRFHGKSIPWFVSDVTKQDFEWTIKQTMAANHKWMSASGVQWKHFMKEGTWSYHDHPFWTLPHEFCDMTVDAANLYSTLQTSDLILFKGDLNYRKLTGDRKWEHTVRFDQALRGFQPAPLCSLRTLKADVQVGLQAGHAEKLSTQDPDWMTNGKYAVVQFSSPHREQ | soluble
MEDRNITEEDRVCPQLPEFDEQANVQTDLKKMKPGDAIGKNWKVVKAIQSDKGFNTIYVAEHVQKKKKMAAVKVERKTEAIKMLQFELFVLLTVEKKNQCKQFCKLFEKGNEKEYNWIAITLCGKSLRALRKNQPTGKLTVACGLSVAQQCLKGLEELHRMGFIHRNVAPSVFAIGRYTGDNQSDLRNIYILDFGFAHQYMIKDGTLKPPSAHPWKYVGSLRHMPRAAYSKVEFSRMEDLEMWFYMSVELVKGCLPWAHLKKPKEVHDYQKLCRNGLQMREMLGGLPPEFVDIMQIVDKLSFTDTPNYTEIYGLLTNAILFSGKNEFPYDWEEAEINEFKNPQKPSVEQAT | not soluble
GALLHQRDQDMLVSILDLEKVSVEDIMIPRSDLVGIDVNDDWKKIQKQLTQANHTRVLLYRDSIDDVVGYIHARDALKLLSKNQFNKATLLRAVRELYFVPEGTPLNIQLLKFQHAKERIGLVVDEYGDIQGLVTLEDILEEIVGDFT | not soluble
